Measurements from paper PMC2731163, “HoxA-11 and FOXO1A Cooperate to Regulate Decidual Prolactin Expression: Towards Inferring the Core Transcriptional Regulators of Decidual Genes” (PLoS ONE, 2009).

Molecular target: N-terminal Flag tagged human FOXO1A (human, UniProt Q12778 1-655)
Assay: cell-based or functional assay

Chain of N-terminal Flag tagged human FOXO1A (Q12778 whole entry): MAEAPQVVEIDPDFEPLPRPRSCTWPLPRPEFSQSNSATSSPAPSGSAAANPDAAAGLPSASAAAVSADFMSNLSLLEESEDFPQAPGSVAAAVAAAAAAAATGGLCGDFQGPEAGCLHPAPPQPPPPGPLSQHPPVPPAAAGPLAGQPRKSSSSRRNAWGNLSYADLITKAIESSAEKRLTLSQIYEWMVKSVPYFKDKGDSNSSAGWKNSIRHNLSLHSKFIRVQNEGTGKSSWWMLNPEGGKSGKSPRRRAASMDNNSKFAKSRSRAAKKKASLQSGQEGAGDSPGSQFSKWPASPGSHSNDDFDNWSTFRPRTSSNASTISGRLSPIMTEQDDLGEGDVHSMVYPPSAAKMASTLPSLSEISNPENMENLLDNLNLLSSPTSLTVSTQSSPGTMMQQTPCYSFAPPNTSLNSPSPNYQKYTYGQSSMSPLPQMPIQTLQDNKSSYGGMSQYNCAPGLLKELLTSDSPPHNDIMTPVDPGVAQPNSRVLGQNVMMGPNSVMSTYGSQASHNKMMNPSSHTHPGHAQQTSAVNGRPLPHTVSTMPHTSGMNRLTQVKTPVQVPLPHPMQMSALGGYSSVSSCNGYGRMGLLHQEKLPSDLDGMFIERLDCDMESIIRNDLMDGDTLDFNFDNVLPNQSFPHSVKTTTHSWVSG

B1: HoxA11-V5/His fusion protein (natural protein)
chain: not shown
- luciferase expression from the dPRL-332/luc3 decidual PRL enhancer reporter in HeLa cells cotransfected with HoxA-11 and FOXO1A, fold change relative to empty expression vector: > 3 fold
